Source: patent publication US20250382344A1, “Soluble GLP1/GIP/NPY2 Receptor Triple Agonists” (Boehringer Ingelheim International GmH, priority 2024, published 2025)
Numbering of substitutions follows the chain as printed. *1 amine or outer side, *2 acyl side, *3 side chain or, on linkers, in order; H or OH if unused. Where no end group is shown, it is not given here. Side-chain parts run from the residue outwards. [ ]: non-standard residue; d: D form. The star is where a group is joined. C20 diacid = O=C(O)CCCCCCCCCCCCCCCCCCC(=O)*; C18 diacid = O=C(O)CCCCCCCCCCCCCCCCC(=O)*; γGlu = O=C(O)[C@H](CCC(=O)[*:2])N[*:1]; εLys = N[C@@H](CCCCN[*:1])C(=O)[*:2]; AEEA = NCCOCCOCC(=O)O; Aib = CC(C)(N)C(=O)O

B1: Compound 61 (peptide)
peptide: YXEGTFTSDYSIXLEKQAQAAFVRHLINKXTRQRY
modifications: Aib at 2, 13, 30; Lys29 epsilon-amino acylated with C18DA-gGlu-gGlu-gGlu-gGlu-gGlu-gGlu-eLys; C-terminal amide
B2: Compound 1 (peptide)
peptide: B1 peptide with Y10L, A20X
modifications: Aib at 2, 13, 20, 30; Lys29 epsilon-amino acylated with C20DA-gGlu-gGlu-gGlu-gGlu-gGlu-AHX-AHX; C-terminal amide
B3: Compound 65 (peptide)
peptide: B1 peptide with K16L, A20X
modifications: Aib at 2, 13, 20, 30; Lys29 epsilon-amino acylated with C18DA-gGlu-gGlu-gGlu-gGlu-gGlu-gGlu-eLys; C-terminal amide
B4: Compound 75 (peptide)
peptide: B1 peptide with K16E, A20X
modifications: Aib at 2, 13, 20, 30; Lys29 epsilon-amino acylated with C18DA-gGlu-gGlu-gGlu-gGlu-gGlu; C-terminal amide
B5: Compound 83 (peptide)
peptide: B1 peptide with A20X, A21E, X30L
modifications: Aib at 2, 13, 20; Lys29 epsilon-amino acylated with C18DA-gGlu-gGlu-gGlu-gGlu-gGlu-gGlu-eLys; C-terminal amide
B6: Compound 66 (peptide)
peptide: B1 peptide with A20X, X30I
modifications: Aib at 2, 13, 20; Lys29 epsilon-amino acylated with C18DA-gGlu-gGlu-gGlu-gGlu-gGlu-gGlu-eLys; C-terminal amide
B7: Compound 69 (peptide)
peptide: B1 peptide with A20X, X30L
modifications: Aib at 2, 13, 20; Lys29 epsilon-amino acylated with C18DA-gGlu-gGlu-gGlu-gGlu-gGlu-AHX; C-terminal amide
B8: Compound 76 (peptide)
peptide: B1 peptide with A20X, V23I
modifications: Aib at 2, 20, 30; aMeL at 13; Lys29 epsilon-amino acylated with C18DA-gGlu-gGlu-gGlu-gGlu-gGlu-gGlu-eLys; C-terminal amide
B9: Compound 84 (peptide)
peptide: B1 peptide with Q19Y, A20X
modifications: Aib at 2, 13, 20, 30; Lys29 epsilon-amino acylated with C18DA-gGlu-gGlu-gGlu-gGlu-gGlu-gGlu-eLys; C-terminal amide

Target: T1, human GIP receptor (human, UniProt P48546 22-466)
T1 sequence (looked up): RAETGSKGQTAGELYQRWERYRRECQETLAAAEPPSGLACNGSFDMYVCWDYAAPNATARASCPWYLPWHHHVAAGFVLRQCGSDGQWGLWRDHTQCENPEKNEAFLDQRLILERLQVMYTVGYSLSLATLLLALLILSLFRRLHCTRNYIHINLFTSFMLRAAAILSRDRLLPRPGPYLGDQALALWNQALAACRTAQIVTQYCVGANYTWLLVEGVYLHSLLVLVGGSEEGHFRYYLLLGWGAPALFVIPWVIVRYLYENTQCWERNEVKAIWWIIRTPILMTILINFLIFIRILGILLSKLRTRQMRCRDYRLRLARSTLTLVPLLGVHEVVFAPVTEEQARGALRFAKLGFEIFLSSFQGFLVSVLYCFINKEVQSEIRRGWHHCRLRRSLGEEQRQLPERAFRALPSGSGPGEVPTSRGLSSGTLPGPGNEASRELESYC
Experiment: cell-based or functional assay

| Binder | EC50, CreLuc reporter, 0.5% hP | EC50, CreLuc reporter, 100% hP |
| --- | --- | --- |
| B1 | 0.4 nM | – |
| B2 | 0.2 nM | 10.3 nM |
| B3 | 0.7 nM | 16.8 nM |
| B4 | 0.3 nM | 13.2 nM |
| B5 | 0.4 nM | – |
| B6 | 0.2 nM | – |
| B7 | 0.2 nM | 5.5 nM |
| B8 | – | 0.5 nM |
| B9 | 5 nM | 48.4 nM |
| Y[Aib]EGTFTSDLSI[Aib]LEKQAQ[Aib]AFVRHLINK([γGlu-εLys-γGlu-γGlu-γGlu-γGlu-γGlu-C20 diacid])[Aib]TRQRY-NH2 [Compound 60] | 0.3 nM | 8 nM |
| Y[Aib]EGTFTSDYSI[Aib]LEKQAE[Aib]AFVRHLINK([εLys-εLys-γGlu-γGlu-γGlu-γGlu-γGlu-γGlu-C20 diacid])[Aib]TRQRY-NH2 [Compound 82] | – | 11.7 nM |
| Y[Aib]EGTFTSDYSI[Aib]LEEEAQ[Aib]EFVRHLINK([γGlu-γGlu-γGlu-γGlu-C18 diacid])[Aib]TRQRY-NH2 [Compound 64] | 0.5 nM | – |
| Y[Aib]EGTFTSDYSI[Aib]LEKQAQ[Aib]EFVRHLINK([AEEA-AEEA-γGlu-γGlu-γGlu-γGlu-C18 diacid])[Aib]TRQRY-NH2 [Compound 73] | 0.4 nM | 5.9 nM |
| Y[Aib]EGTFTSDYSI[Aib]LEKQAQ[Aib]EFVRHLINK([γGlu-γGlu-γGlu-γGlu-C18 diacid])[Aib]TRQRY-NH2 [Compound 79] | – | 4.7 nM |

Target: T2, human neuropeptide Y2 receptor (human, UniProt P49146 1-381)
T2 sequence (looked up): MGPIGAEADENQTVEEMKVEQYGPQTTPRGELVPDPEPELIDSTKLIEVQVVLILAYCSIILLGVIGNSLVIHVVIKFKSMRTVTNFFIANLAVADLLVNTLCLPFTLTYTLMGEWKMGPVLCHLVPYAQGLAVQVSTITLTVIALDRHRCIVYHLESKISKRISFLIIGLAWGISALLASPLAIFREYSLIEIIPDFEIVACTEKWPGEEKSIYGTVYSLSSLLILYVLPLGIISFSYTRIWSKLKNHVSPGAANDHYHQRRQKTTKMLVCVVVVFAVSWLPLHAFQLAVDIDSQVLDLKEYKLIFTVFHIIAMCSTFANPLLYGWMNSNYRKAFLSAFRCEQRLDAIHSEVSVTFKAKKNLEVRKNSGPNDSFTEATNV
Experiment: cell-based or functional assay

| Binder | EC50, CreLuc reporter, 0.5% hP | EC50, CreLuc reporter, 100% hP |
| --- | --- | --- |
| B1 | 24.1 nM | 42.1 nM |
| B2 | 12.6 nM | 127 nM |
| B3 | 65.8 nM | 406 nM |
| B4 | 191 nM | 904 nM |
| B5 | 16.8 nM | 31.7 nM |
| B6 | 9.8 nM | 99.3 nM |
| B7 | 7 nM | 56 nM |
| B8 | 7.2 nM | 24.3 nM |
| B9 | 18.5 nM | 55 nM |
| Y[Aib]EGTFTSDLSI[Aib]LEKQAQ[Aib]AFVRHLINK([γGlu-εLys-γGlu-γGlu-γGlu-γGlu-γGlu-C20 diacid])[Aib]TRQRY-NH2 [Compound 60] | – | 124 nM |
| Y[Aib]EGTFTSDYSI[Aib]LEKQAE[Aib]AFVRHLINK([εLys-εLys-γGlu-γGlu-γGlu-γGlu-γGlu-γGlu-C20 diacid])[Aib]TRQRY-NH2 [Compound 82] | – | 75.1 nM |
| Y[Aib]EGTFTSDYSI[Aib]LEEEAQ[Aib]EFVRHLINK([γGlu-γGlu-γGlu-γGlu-C18 diacid])[Aib]TRQRY-NH2 [Compound 64] | 162 nM | 720 nM |
| Y[Aib]EGTFTSDYSI[Aib]LEKQAQ[Aib]EFVRHLINK([AEEA-AEEA-γGlu-γGlu-γGlu-γGlu-C18 diacid])[Aib]TRQRY-NH2 [Compound 73] | – | 136 nM |
| Y[Aib]EGTFTSDYSI[Aib]LEKQAQ[Aib]EFVRHLINK([γGlu-γGlu-γGlu-γGlu-C18 diacid])[Aib]TRQRY-NH2 [Compound 79] | 57.9 nM | 99.1 nM |
